Measured values: patent US20110300138A1 (published 2011)
Each block holds one molecule with its values, some of them ahead of it.

Columns and labels:
[1] = target: TSHR (thyroid stimulating hormone receptor), full length human (human) (UniProt P16473); assay: competitor ^125I-K1-70 IgG, TSHR coated tubes; 0.01 µg/mL in HBD
[2] = target: TSHR (thyroid stimulating hormone receptor), full length human (human) (UniProt P16473); assay: competitor ^125I-K1-70 IgG, TSHR coated tubes; 0.1 µg/mL in assay buffer
[3] = target: TSH receptor (full length human TSHR) (human) (UniProt P16473); assay: competition ELISA: inhibition of M22 Fab-peroxidase (competitor) binding to TSHR coated wells; test sample at 100 µg/mL diluted in assay buffer
[4] = target: human thyroid stimulating hormone receptor (TSHR), full length (human) (UniProt P16473); assay: 125I-K1-70 Fab (competitor) binding to TSHR coated tubes; negative control MAb 0.001 µg/mL in HBD serum
[5] = target: TSH receptor (full length human TSHR) coated on tubes (human) (UniProt P16473); assay: 125I-TSH binding inhibition read against NIBSC 90/672; 100 ng/mL, in serum
[6] = target: human thyroid stimulating hormone receptor (TSHR), full length (human) (UniProt P16473); assay: 125I-K1-18 Fab competition, TSHR coated tubes; 0.1 µg/mL in HBD
[7] = target: TSH receptor (TSHR), full length human, coated on tubes (human) (UniProt P16473); assay: inhibition of 125I-K1-18 IgG (competitor) binding to TSHR coated tubes; test sample at 10 µg/mL in assay buffer

Molecule: 5B3 IgG (antibody)
Inhibition of binding (%) [4]: -12.1%

Molecule: M22 IgG (antibody)
units/L [5]: 9.9 units/L | units/mg [5]: 99 units/mg

The remaining lines, values ahead:

Inhibition of binding (%) [1]: 0.6% | Inhibition of binding (%) [2]: 24.8% | Inhibition of binding (%) [3]: 64.1%
Molecule: 9D33 IgG (antibody)

Inhibition of binding (%) [6]: 6.3% | Inhibition of binding (%) [7]: 65.9%
B1: 5C9 IgG (antibody, from another filing, V domains shown)
VH: EVQLVESGGGLIQPGGSLRLSCAASGFTVSSNYMSWVRQAPGKGLEWVSVTYSGGSTSYADSVKGRFTISRDNSKNTLYLQMNSLRAEDTAVYYCARGGRYCSSISCYARSGCDYWGQGTLVTVSS
VL: AIQMTQSPSSLSASVGDRVTITCRASQSISNYLNWYQQKPGKAPKLLIYAASSLQSGVPSRFSGSGSGTDFTLTISSLQPEDFATYYCQQSYSSPSTTFGQGTKLEIK
